# Measurements from US9605038B2, “Fusion peptide comprising dhFas-1 domain and MMP substrate and use thereof for preventing and treating rheumatoid arthritis” (Kyungpook National University Industry-Academic Cooperation …, priority 2010, dated 2017).
# Entries after “also recorded” stand apart in the source; their conditions may differ.
# T1: MMP1 (Homo sapiens, UniProt P03956)
# T1 sequence (P03956 100-469): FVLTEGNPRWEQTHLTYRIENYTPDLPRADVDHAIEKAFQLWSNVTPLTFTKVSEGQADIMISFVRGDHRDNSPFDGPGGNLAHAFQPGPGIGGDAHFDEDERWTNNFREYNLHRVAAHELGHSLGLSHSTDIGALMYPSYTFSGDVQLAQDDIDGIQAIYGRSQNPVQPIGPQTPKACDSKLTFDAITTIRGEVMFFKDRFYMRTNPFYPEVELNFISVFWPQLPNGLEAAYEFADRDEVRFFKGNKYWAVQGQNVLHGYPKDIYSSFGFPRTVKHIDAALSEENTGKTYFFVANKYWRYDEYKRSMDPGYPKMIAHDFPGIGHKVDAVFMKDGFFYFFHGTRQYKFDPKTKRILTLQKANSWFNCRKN
# T2: MMP2 (Homo sapiens, UniProt P08253)
# T2 sequence (P08253 110-660): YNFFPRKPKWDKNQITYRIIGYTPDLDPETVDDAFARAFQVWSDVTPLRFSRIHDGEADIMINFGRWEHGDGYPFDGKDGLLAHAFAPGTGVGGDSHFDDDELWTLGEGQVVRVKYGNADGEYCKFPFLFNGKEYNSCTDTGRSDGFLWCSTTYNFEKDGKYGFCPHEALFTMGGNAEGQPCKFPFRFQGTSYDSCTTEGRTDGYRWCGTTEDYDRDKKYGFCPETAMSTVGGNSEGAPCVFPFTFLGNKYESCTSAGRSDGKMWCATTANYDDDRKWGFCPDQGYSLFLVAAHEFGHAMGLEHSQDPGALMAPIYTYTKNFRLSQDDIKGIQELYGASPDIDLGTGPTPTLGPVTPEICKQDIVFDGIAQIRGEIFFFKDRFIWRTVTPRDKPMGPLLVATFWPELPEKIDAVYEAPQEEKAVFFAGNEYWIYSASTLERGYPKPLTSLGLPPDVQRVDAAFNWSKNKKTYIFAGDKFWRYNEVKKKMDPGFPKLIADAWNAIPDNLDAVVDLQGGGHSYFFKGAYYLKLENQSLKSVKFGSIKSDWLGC
# T3: cathepsin K (Homo sapiens, UniProt P43235)
# T3 sequence (P43235 115-329): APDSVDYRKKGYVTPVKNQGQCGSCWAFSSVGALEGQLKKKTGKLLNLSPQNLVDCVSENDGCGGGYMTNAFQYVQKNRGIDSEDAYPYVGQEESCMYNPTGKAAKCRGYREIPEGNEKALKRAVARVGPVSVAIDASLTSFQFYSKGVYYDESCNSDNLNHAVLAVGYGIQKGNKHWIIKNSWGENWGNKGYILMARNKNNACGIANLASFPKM
# B1: MFK23: fusion peptide having sequential links of mdhFas-1, MMP2 substrate GPLGVRG (SEQ ID NO: 5), and QERGDSLA (SEQ ID NO: 10) (protein)
# chain: QAMPPEELNKLLANAKELTNILKYHIGDEILVSGGIGALVRLKSLQGDKLEVSSKNNVVSVNKEPVAETDIMEFGPLGVRGVDGQERGDSLAGLE
# modifications: MFK23
# B2: MFK24: fusion peptide having sequential links of mdhFas-1, MMP1 substrate GPQGIAG (SEQ ID NO: 6), and QERGDSLA (SEQ ID NO: 10) (protein)
# chain: QAMPPEELNKLLANAKELTNILKYHIGDEILVSGGIGALVRLKSLQGDKLEVSSKNNVVSVNKEPVAETDIMEFGPQGIAGVDGQERGDSLAGLE
# modifications: MFK24
# Tests used:
# [1] = tested on: NIH3T3; assay: βig-h3-mediated cell migration test (transwell), NIH3T3; assay type: cell-based, mouse; conditions: 7 hours
# Description: In the lower compartment of a transwell filter having an 8 um hole size allowing cells to be migrated, βig-h3 was cultured at 4° C. for 12 to 14 hours and coated. In DMEM+0.5% BSA culture medium, NIH3T3 was introduced, and administered with MFK23, MFK24 or MFK25 at concentrations, followed by mixing. The resultant mixture was cultured at 37° C. for 30 minutes, inoculated into the upper chamber of the coated well, and cultured for 7 hours at 37° C. Then, the cells migrated to the lower compartment of the filter were fixed by paraformaldehyde, and strained by a crystal violet. The cells […] remaining in the upper chamber were wiped out and the number of cells migrated to the lower compartment was microscopically counted.
# [2] = biological target: T1, MMP1; assay: Enzymatic digestion test, MMP1; assay type: biochemical; conditions: 3 ug peptide, MMP1 5, 10, 50 ng, 37° C. 4 hours
# Description: (§1) 3 ug of synthesized mdhFas-1-MMPsubstrate structure modified protein, together with MMP1 (5 ng, 10 ng and 50 ng), MMP2 (100 ng, 200 ng and 800 ng), MMP3 (10 ng, 50 ng and 100 ng), cathepsin D (5 ng, 10 ng and 50 ng), cathepsin L (100 ng, 200 ng and 800 ng), and cathepsin K (10 ng, 50 ng and 100 ng), was mixed with enzyme buffer (150 mM NaCl, 5 mM. CaCl2, 20 mM Tris-HCl pH7.5), and reacted at 37° C. for 4 hours. The resultant product was subjected to electrophoresis through 15% polyacrylamide gel, transferred to a Nitrocellulose Membrane (Schleicher & Schuell), blocked at room temperature for 1 hour with TBST solution containing 3% BSA (20 mmole/L Tris-HCl, 137 mmole//l NaCl, 0.1% Tween-20), washed TBST solution three times (each for 10 minutes), and reacted with primary antibody (anti-Histidine or anti-Bigh3) for 1 hour. The resultant product was washed with TBST solution three times (each for 10 minutes), reacted with a secondary antibody conjugated to horseradish peroxidase (HRP) for 1 hour, washed TBST solution three times (each for 10 minutes), and visualized by ECL (Amersham Biosciences, UK) so as to detect the change in the amount of mdhFas-1-MMPsubstrate-RGD structural peptide.
# [3] = biological target: T2, MMP2; assay: Enzymatic digestion test, MMP2; assay type: biochemical; conditions: 3 ug peptide, MMP2 100, 200, 800 ng, 37° C. 4 hours
# Description: as §1
# [4] = biological target: T3, cathepsin K; assay: Enzymatic digestion test, cathepsin K; assay type: biochemical; conditions: 3 ug peptide, cathepsin K 10, 50, 100 ng, 37° C. 4 hours
# Description: as §1
# [5] = biological target: cathepsin L (Homo sapiens, UniProt P07711); assay: Enzymatic digestion test, cathepsin L; assay type: biochemical; conditions: 3 ug peptide, cathepsin L 100, 200, 800 ng, 37° C. 4 hours
# Chain of cathepsin L (P07711 114-333, species assumed): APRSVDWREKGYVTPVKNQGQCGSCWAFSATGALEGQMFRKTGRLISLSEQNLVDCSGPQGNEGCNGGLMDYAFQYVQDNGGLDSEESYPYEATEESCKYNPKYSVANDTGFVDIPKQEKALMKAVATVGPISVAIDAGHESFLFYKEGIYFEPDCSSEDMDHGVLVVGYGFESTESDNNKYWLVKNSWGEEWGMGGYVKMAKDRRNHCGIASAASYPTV
# Description: as §1
# [6] = Toxicity test in CIA mouse (weight, serologic test, blood test); conditions: for body weight change compared to control group: 22nd day vs 48th day; for overall toxicity: serologic test, blood test, weight; for ALT / AST / BUN / Crea / PLT / RBC / WBC: CIA model, 4 weeks
# Description: On the 48th day, a serologic test and a blood test were carried out.
molecule,measurement,setting,value
B1,βig-h3-mediated cell migration,[1],inhibited the cell migration; also recorded: concentration-dependently inhibited
same,cleavage through treatment with MMP-1,[2],not cleaved
same,cleavage through treatment with MMP-2,[3],concentration-dependently cleaved
same,cleavage through treatment with cathepsin K,[4],not cleaved
same,cleavage through treatment with cathepsin L,[5],not cleaved
same,death during the therapy period,[6]; CIA mouse,No mouse died
same,body weight change compared to control group,[6]; CIA mouse,maintained similarly to that of the control group
same,overall toxicity,[6]; CIA mouse,a low toxicity and a low dangerousness
B2,βig-h3-mediated cell migration,[1],inhibited the cell migration; also recorded: concentration-dependently inhibited
same,cleavage through treatment with MMP-1,[2],concentration-dependently cleaved
same,cleavage through treatment with MMP-2,[3],not cleaved
same,cleavage through treatment with cathepsin K,[4],not cleaved
same,cleavage through treatment with cathepsin L,[5],not cleaved
same,ALT,[6]; 0.1 mg/kg,37.8 ± 7.1 U/L
same,AST,[6]; 0.1 mg/kg,224.3 ± 13 U/L
same,BUN,[6]; 0.1 mg/kg,19.0 ± 3.3 mg/dL
same,Crea,[6]; 0.1 mg/kg,0.54 ± 0.10 mg/dL
same,PLT,[6]; 0.1 mg/kg,1280.2 ± 284 ×10^3/ul
same,RBC,[6]; 0.1 mg/kg,12.3 ± 0.7 ×10^6/ul
same,WBC,[6]; 0.1 mg/kg,5.0 ± 1.2 ×10^3/ul
same,ALT,[6]; 1 mg/kg,40.6 ± 7.2 U/L
same,AST,[6]; 1 mg/kg,270.5 ± 17 U/L
same,BUN,[6]; 1 mg/kg,21.2 ± 3.4 mg/dL
same,Crea,[6]; 1 mg/kg,0.54 ± 0.14 mg/dL
same,PLT,[6]; 1 mg/kg,1155.3 ± 184 ×10^3/ul
same,RBC,[6]; 1 mg/kg,10.9 ± 1.7 ×10^6/ul
same,WBC,[6]; 1 mg/kg,3.7 ± 0.5 ×10^3/ul
same,ALT,[6]; 10 mg/kg,43.6 ± 14.2 U/L
same,AST,[6]; 10 mg/kg,222.0 ± 25 U/L
same,BUN,[6]; 10 mg/kg,20.4 ± 4.4 mg/dL
same,Crea,[6]; 10 mg/kg,0.54 ± 0.11 mg/dL
same,PLT,[6]; 10 mg/kg,1050.1 ± 359 ×10^3/ul
same,RBC,[6]; 10 mg/kg,11.4 ± 1.5 ×10^6/ul
same,WBC,[6]; 10 mg/kg,5.0 ± 1.8 ×10^3/ul
same,ALT,[6]; 30 mg/kg,28.9 ± 8.2 U/L
same,AST,[6]; 30 mg/kg,286.6 ± 48 U/L
same,BUN,[6]; 30 mg/kg,12.4 ± 4.8 mg/dL
same,Crea,[6]; 30 mg/kg,0.33 ± 0.02 mg/dL
same,PLT,[6]; 30 mg/kg,674.7 ± 111 ×10^3/ul
same,RBC,[6]; 30 mg/kg,12.4 ± 0.1 ×10^6/ul
same,WBC,[6]; 30 mg/kg,6.1 ± 1.1 ×10^3/ul
same,death during the therapy period,[6]; CIA mouse,No mouse died
same,body weight change compared to control group,[6]; CIA mouse,maintained similarly to that of the control group
same,bilirubin and creatine compared to control group,"[6]; CIA mouse, 48th day",no significant difference
same,"erythrocytes, leukocytes, platelets and liver function values (AST and ALT) compared to control","[6]; CIA mouse, 48th day",did not show abnormalities
same,overall toxicity,[6]; CIA mouse,a low toxicity and a low dangerousness
